How the values were obtained:
[1] = Stain removal with laccases, tea; conditions: 60 min, pH 6
Experimental: The TaLcc1 (RF5598) and Denilite II Base laccase preparations were tested for their ability to remove stains. The following artificially soiled test cloths were used: grass soiling (Art. 164, EMPA Testmaterialen, Germany), tea soiling (Art. 167, EMPA Testmaterialen, Germany). The fabric was cut in 5.8×5.8 cm swatches. Laccase treatments were performed in LP-2 Launder Ometer as follows. About 5 g of soiled fabrics were loaded into 1.2 liter containers containing 150 ml Mc Ilvaine's citrate phosphate buffer pH 6 and the containers were temperated. Enzymes with or without the mediator (methyl syringate, DeniLite II Assist, Novozymes) were dosed as laccase activity units (Example 7). Enzyme dosage was 200 nkat/g and mediator dosage 10 mg/g of the weight of fabric, except at 40° C. also dosages of 20 nkat/g and 2 mg/g were used. The Launder Ometer was run at 40, 50 or 60° C. and pH 6 for 60 min. After that the swatches were carefully rinsed under running water and in shake flasks containing warm water and dried in the air.
The stain removal effect was evaluated by measuring the colour as reflectance values using L*a*b* color space coordinates (Example 7). The colour of the swatches was measured before and after the laccase treatment.

Decolorization of dyes = assay: Decolorization of dyes; parameters: key to Decolorization of Indigocarmine, Time 30 min / Decolorization of Indigocarmine, Time 90 min: −: no visually detectable change; +: visually detectable fading of the colour; ++: considerable fading of the colour; +++: complete/almost complete decolorization; conditions: 50° C., pH 6; for Decolorization of Indigocarmine, Time 30 min / Decolorization of Indigocarmine, Time 90 min: dye 12 mg/100 ml
Experimental: The TaLcc1 laccase preparation from strain RF5597 was tested for its ability to decolourize different dyes in the presence or absence of the methyl syringate mediator (Example 7). The experiments were carried out in 250 ml shake flasks containing 100 ml of dye dissolved in citrate phosphate buffer pH 6. Dye concentration 12 mg/100 ml was used. Enzyme was dosed 200 nkat (or 20 nkat) per 100 ml and the mediator 10 (or 1) mg per 100 ml. The shake flasks were incubated at 50° C. for 30, 90 and 150 minutes. Samples of 3.5 ml were taken in test tubes for visual evaluation.

[2] = Specific activity on guaiacol; assay type: biochemical; conditions: 25 mM MES buffer, pH 5.5
Experimental: Specific activities of the purified Thielavia laccase were determined towards different laccase substrates.

[3] = 20 nkat/g, mediator 2 mg/g, 40° C.
[4] = 200 nkat/g, mediator 0 mg/g, 40° C.
[5] = 200 nkat/g, mediator 0 mg/g, 60° C.
[6] = 200 nkat/g, mediator 10 mg/g, 40° C.
[7] = 200 nkat/g, mediator 10 mg/g, 50° C.
[8] = 200 nkat/g, mediator 10 mg/g, 60° C.
[9] = enzyme 20 nkat/100 ml, mediator 1 mg/100 ml
[10] = enzyme 200 nkat/100 ml, mediator 0 mg/100 ml
[11] = enzyme 200 nkat/100 ml, mediator 10 mg/100 ml

B1: TaLcc1: Recombinant Thielavia arenaria ALKO4197 laccase 1 (SEQ ID NO: 12) produced in Trichoderma reesei strains RF5597/RF5598 (protein)
chain: MKSWAAAVALMVGILSPHAAAAPPANPVQRDMLQVLEARQSGPTCNTPSNRACWTNGFDINTDYEVSTPNTGRTVAYQLTLTEKENWIGPDGVLKNVVMLVNDKIIGPTIRANWGDNIEVTVINNLKTNGTSMHWHGLRQLGNVFNDGANGVTECPIPPKGGRKTYKFRATQYGTSWYHSHFSAQYGNGVVGTIQIDGPASLPYDIDLGVFPLMDYYYRSADELVHFTQSNGAPPSDNVLFNGTARHPETGAGQWYNVTLTPGKRHRLRIINTSTDNHFQVSLVGHNMTVIATDMVPVNAFTVSSLFLAVGQRYDVTIDANSPVGNYWFNVTFGDGLCGSSNNKFPAAIFRYQGAPATLPTDQGLPVPNHMCLDNLNLTPVVTRSAPVNNFVKRPSNTLGVTLDIGGTPLFVWKVNGSAINVDWGKPILDYVMSGNTSYPVSDNIVQVDAVDQWTYWLIENDPTNPIVSLPHPMHLHGHDFLVLGRSPDELPSAGVRHIFDPAKDLPRLKGNNPVRRDVTMLPAGGWLLLAFKTDNPGAWLFHCHIAWHVSGGLSVDFLERPNDLRTQLNSNAKRADRDDFNRVCREWNAYWPTNPFPKIDSGLRHRFVEESEWMVR
modifications: Thielavia arenaria ALKO4197; (1)..(617) Deduced amino acid sequence of Thielavia arenaria ALKO4197 laccase 1 (Ta Lcc1)
[1]; [3]
  Tea L*: 77.17
  Tea a*: 4.65
  Tea b*: 24.40
[1]; [4]
  Tea L*: 75.99
  Tea a*: 5.59
  Tea b*: 23.54
[1]; [5]
  Tea L*: 76.98
  Tea a*: 4.98
  Tea b*: 21.20
[1]; [6]
  Tea L*: 78.77
  Tea a*: 3.93
  Tea b*: 24.97
[1]; [7]
  Tea L*: 79.52
  Tea a*: 3.45
  Tea b*: 23.74
[1]; [8]
  Tea L*: 81.69
  Tea a*: 2.91
  Tea b*: 22.29
Decolorization of dyes; [9]
  Decolorization of Indigocarmine, Time 30 min: +
  Decolorization of Indigocarmine, Time 90 min: +++
Decolorization of dyes; [10]
  Decolorization of Indigocarmine, Time 30 min: −
  Decolorization of Indigocarmine, Time 90 min: −
Decolorization of dyes; [11]
  Decolorization of Indigocarmine, Time 30 min: +++
  Decolorization of Indigocarmine, Time 90 min: +++
Decolorization of dyes; in the presence of the mediator
  time until blue colour of Indigocarmine had turned to light yellow: < 30 min
[2]
  Specific activity on guaiacol: 61 nkat/mg

— patent US7927849B2, “Laccase enzyme and use thereof” (AB Enzymes OY, priority 2004, dated 2011)
